Test results from paper PMC8907715, “Selection and identification of high‐affinity aptamer of Kunitz trypsin inhibitor and their application in rapid and specific detection”.

Molecular target: T1, Kunitz trypsin inhibitor (KTI) (UniProt P01070)
T1 sequence: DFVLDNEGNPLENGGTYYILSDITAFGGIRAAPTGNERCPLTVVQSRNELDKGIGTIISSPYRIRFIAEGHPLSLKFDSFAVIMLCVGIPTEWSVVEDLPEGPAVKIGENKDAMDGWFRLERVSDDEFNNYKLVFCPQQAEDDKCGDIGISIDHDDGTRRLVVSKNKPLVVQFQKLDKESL
Test: GO fluorescence assay
Conditions: FAM-aptamer 0-600 nM with GO 60 min, then 1 uM KTI 2 h at room temperature in the dark; assay buffer, salt and pH not stated (oligos dissolved in TE pH 8.0)

Row | Molecule | Kd
1 | TGTACCGCCCACCTGCCGCTAACGGCGGTGCTGCGGTGCG [Akti-28] | 164 nM
2 | GGTCGTGAGGCCCACCGCTGAGCTCTAGTATCGCTCGGCG [Akti-11] | 116 nM
3 | CTGGTGTTTTCTTTACGCATAACAAGGCCCCTGAGAGGCT [Akti-9] | 134 nM
4 | CCAACCTGTGGCATTTGGTAACTTGATCTTACGGTGTTCG [Akti-10] | 22.6 nM
5 | TCTGGCTTCTGATCTGATGTTTTTACTATCGGTATTTCTA [Akti-15] | 67.9 nM

Molecular target: T2, Kunitz trypsin inhibitor (KTI) (UniProt P01070 25-205)
T2 sequence: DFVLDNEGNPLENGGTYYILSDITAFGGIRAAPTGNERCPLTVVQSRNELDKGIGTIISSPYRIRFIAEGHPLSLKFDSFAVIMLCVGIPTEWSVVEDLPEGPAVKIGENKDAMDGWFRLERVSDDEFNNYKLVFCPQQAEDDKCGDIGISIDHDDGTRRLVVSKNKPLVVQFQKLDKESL
Test: GO fluorescence assay; text gives 52.6 ± 11.4; FAM-aptamer 0-600 nM with GO 60 min, then 1 uM KTI 2 h at room temperature in the dark; assay buffer, salt and pH not stated (oligos dissolved in TE pH 8.0)
Conditions: protein: commercial; label: 5'-FAM

Row | Molecule | Kd
6 | CTTCGTATCCTGTGCTGCAGTTGTTTTTAAGTGCTGGGAG (ssDNA) [Akti-5] | 52.5 ± 11.3 nM
